Data: patent publication US20130324474A1 (Eli Lilly, published 2013)
Numbering of substitutions follows the chain as printed. Names may count otherwise.

T1: Recombinant Human GFRα-1/GDNF Rα-1 Fc Chimera (human, UniProt P56159 25-429)
T1 construct: Purchased Fc chimera; It was captured on protein A in Biacore and coated on the plate in ELISA; also called GFRα1-Fc; recombinant human GFRα1-Fc chimera, carrier-free; not shown: Fc part of a purchased Fc chimera
T1 sequence (looked up): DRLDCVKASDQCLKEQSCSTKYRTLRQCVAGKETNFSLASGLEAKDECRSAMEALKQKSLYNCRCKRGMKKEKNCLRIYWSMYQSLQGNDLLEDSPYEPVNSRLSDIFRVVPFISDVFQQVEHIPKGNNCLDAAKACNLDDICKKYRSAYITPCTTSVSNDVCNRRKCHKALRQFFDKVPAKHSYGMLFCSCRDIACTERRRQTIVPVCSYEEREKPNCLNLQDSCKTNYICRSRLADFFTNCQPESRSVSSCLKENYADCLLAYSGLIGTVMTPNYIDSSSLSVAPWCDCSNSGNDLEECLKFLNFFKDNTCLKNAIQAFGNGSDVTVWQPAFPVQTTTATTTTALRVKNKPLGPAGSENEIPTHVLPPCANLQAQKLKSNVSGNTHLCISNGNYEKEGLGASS

B1: CHO-Δ31-GDNF (SEQ ID NO: 8) (ligand)
chain: RGQRGKNRGCVLTAIHLNVTDLGLGYETKEELIFRYCSGSCDAAETTYDKILKNLSRNRRLVSDKVGQACCRPIAFDDDLSFLDDNLVYHILRKHSAKRCGCI
modifications: N-glycosylated at N49 (numbering of mature GDNF)
notes: Expressed in CHO cells; also called CHO-Δ31-GDNFv; WT CHO Δ31-GDNFv
B2: CHO-Δ31-N38Q-D95E-GDNF (SEQ ID NO: 9) (ligand)
chain: B1 chain with N7Q, D64E
modifications: N-glycosylated at N49 (numbering of mature GDNF)
notes: Expressed in CHO cells; also called CHO-Δ31-N38Q-D95E-GDNFv; GDNF variant 2

What was measured:
[1] = molecular target: T1, Recombinant Human GFRα-1/GDNF Rα-1 Fc …; assay: Biacore (SPR), GFRα-1; 4 C sample of the 4-week stability comparison
[2] = molecular target: T1, Recombinant Human GFRα-1/GDNF Rα-1 Fc …; assay: ELISA, plate-bound human GFRα1-Fc; lower end of the 95% confidence range, n = 14
Protocol: (§1) Each well of a 96-well plate (Greiner 655081 Immunobind ELISA plates) is coated with 70 μl of human GFRα1 (recombinant human GFRα1-Fc chimera, carrier-free) at 1 μg/ml in carbonate buffer, pH 9.6. If an irrelevant receptor is coated, it is an irrelevant Fc chimera and is coated at the same concentration as GFRα1. The plates are sealed and incubated at 4° C. overnight. The wells are aspirated and washed twice with washing buffer (20 mM Tris (hydroxymethyl) aminomethane, pH 7.4, 0.15 M NaCl, 0.1% Tween-20), using an automatic plate washer. The plates are blocked with 200 μl blocking buffer per well (3% Carnation Instant milk in the above washing buffer) for at least 1 hour at room temperature. Plates are washed twice with washing buffer. […]
(§2) A 50 μl aliquot of horseradish peroxidase-conjugated streptavidin (Jackson ImmunoResearch, catalog #016-030-084), diluted 1:1000 in blocking buffer, is added to each well and incubated for 20-30 minutes at room temperature. […] The absorbance of the wells is read at 490 nm on a Molecular Devices SpectraMax250 plate reader. The average absorbance for the triplicate wells for each condition are determined, and the resulting values are processed for EC₅₀ calculation with Graph Pad Prism software to provide a 95% confidence range.

[3] = molecular target: T1, Recombinant Human GFRα-1/GDNF Rα-1 Fc …; assay: ELISA, plate-bound human GFRα1-Fc; upper end of the 95% confidence range, n = 14
Protocol: as §1, §2

[4] = molecular target: T1, Recombinant Human GFRα-1/GDNF Rα-1 Fc …; assay: SPR (Biacore 2000), GFRα1-Fc captured on protein A, GDNFv as analyte, 1:1 Langmuir, 25 C
Protocol: A Biacore® 2000 instrument is used to measure the binding kinetics of GDNFv to human and rat GDNF family receptors (GFRα1 and GFRα2). Measurements are performed at 25° C. Samples are dissolved in HBS-EP buffer (150 mM sodium chloride, 3 mM EDTA, 0.005% (w/v) surfactant P-20, pH 7.4). Protein A, Staphylococcus aureus is immobilized on flow cells 1 to 4 of a CM4 sensor chip (GE Healthcare #BR-1005-39) at a level of ˜200 response units (RUs) using amine coupling chemistry to capture GFR Fc chimera (Recombinant Human GFRα-1/GDNF Rα-1 Fc Chimera; Recombinant Human GFRα-2/GDNF Rα-2 Fc Chimera; Recombinant Rat GFRα-1/GDNF Rα-1 Fc Chimera; Recombinant Mouse GFRα-2/GDNF Rα-2 Fc Chimera).
Binding is evaluated using multiple cycles. Each cycle consists of the following steps: 1) injection of about 10 μL of GFR at a concentration of ˜1.0 μg/mL and a flow rate of 10 μL/min., aiming at a capture of 120-150 RUs; 2) injection of 250 μL of GDNFv at a flow rate of 50 μL/min., in a final concentration rage between 10 nM and 0.04 nM followed by […]. for dissociation; and 3) regeneration using about 30 μL of 10 mM glycine hydrochloride, pH 1.5. Association and dissociation rates for each cycle are evaluated using a “1:1 (Langmuir) binding” model in the BIAevaluation software, version 4.1.

[5] = molecular target: T1, Recombinant Human GFRα-1/GDNF Rα-1 Fc …; assay: ELISA, plate-bound human GFRα1-Fc; lower end of the 95% confidence range, n = 4
Protocol: as §1, §2

[6] = molecular target: T1, Recombinant Human GFRα-1/GDNF Rα-1 Fc …; assay: ELISA, plate-bound human GFRα1-Fc; upper end of the 95% confidence range, n = 4
Protocol: as §1, §2

Row | Binder | Kd [1] | EC50 [2] | EC50 [3] | Kd [4] | koff [4] | kon [4] | EC50 [5] | EC50 [6]
1 | B1 | 0.029 nM | 0.3 to 0.6 nM | 0.3 to 0.6 nM | 0.029 nM | 9e-05 s⁻¹ | 3.8e+06 M⁻¹ s⁻¹ |  | 
2 | B2 | 0.03 nM |  |  | 0.03 nM | 0.00011 s⁻¹ | 4.5e+06 M⁻¹ s⁻¹ | 0.3 to 1.9 nM | 0.3 to 1.9 nM
